Ends that are not written are not given here.
Target: T1, Cbx1 fusion protein (Cbx1 chromodomain-KDAC8) (Homo sapiens, UniProt P83916)
T1 construct: constructing E. coli-based vectors containing chromodomains and KDAC8 separated by a short linker; made in house; host or cells: E. coli
Experiment: Enzyme-coupled SAMDI mass spectrometry assay: deacetylation of an immobilized KDAC8 substrate reports chromodomain binding to a co-immobilized ligand
Assay type: biochemical
Conditions: monolayer presenting substrate GMK^AcFGC and the ligand; when the chromodomain binds its ligand on the monolayer
From the text: In this example, two peptides—a methylated peptide that binds the chromodomain and an acetylated peptide that is a substrate for the deacetylase—are immobilized to a monolayer presenting maleimide groups against a background of tri(ethylene glycol) groups. The density of the maleimide group is controlled precisely (Houseman et al., Langmuir 19: 1522-1531 (2003)) and the relative densities of the two peptides are controlled either by immobilizing them as a mixture at defined concentrations or by immobilizing the first for a time that gives incomplete immobilization followed by addition of the second peptide. Fusion proteins are prepared by first constructing E. coli-based vectors containing chromodomains and KDAC8 separated by a short linker. The vector is designed to contain a restriction site allowing for the insertion of any chromodomain of interest containing the complementary restriction sites. In this way, the same plasmid containing KDAC8 may be used to rapidly create several chromodomain fusions. Monolayers are treated with the chromodomain-KDAC8 fusion protein for different times, the reactions are stopped by rinsing and the spots are analyzed by SAMDI mass spectrometry to identify an initial velocity for the reaction, υo, which is the measurable parameter that is used to assess the protein-ligand interaction. […]

T1 sequence (P83916 21-79 limits assumed): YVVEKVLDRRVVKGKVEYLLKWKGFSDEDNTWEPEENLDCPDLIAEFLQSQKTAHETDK

- rate acceleration for the deacetylation reaction: approximately 20 fold
Substance: QTARK^MeSTGC: methylated H3K9-based peptide ligand for the Cbx1 chromodomain, immobilized on the monolayer via cysteine (QTARK(Me)STGC; also: immobilized on the monolayer via cysteine)

From US10782287B2, “Enzyme coupled assay for quantification of protein and peptide binding by SAMDI mass spectrometry” (NORTHWESTERN UNIVERSITY, priority 2015, dated 2020)
